Experiment: label from the status in PepcDB records
With “MANDKRTSPPTPRQPAKGGAAGKRQGHAAEGTRKPRARGEERKEKPADGRSATALTANERREIDDKQPPRAAVLHEVIRVQGEHELQRTLAALWWSAVAAGLTIGLSLMGMGLFRAALPEQEWAIIVSSFGYPMGFLAVILARQQLFTENTLTAVLPVMTEPTLEKAWQLLRLWSVVLFGNIVGTLLFAWAVLHLPIFNEAADAAFLEIGREVMHNDLAQMFAKGIVSGWMIATMVWLIPAAEGAKIWIIAMVTYLMALGSFTHIVVGSAEVGYLAFAGEIGWAEFLLKFALPTLGGNIVGGSLIFALISHAQIRSEG” the protein production was “failed”.
For “MANDPRHLPSRKLLVTCALPYANGSIHLGHMLEHIQADIWVRYQRLRGNTVNFICADDAHGTPIMLKAQQMGITPEEMIAAVSEEHQKDFAGFDISFDNYHSTHSEENRELASHIYLELKKNGFISSRTISQLFDPEKEMFLPDRFVKGTCPKCKSEDQYGDNCDNCGETYSPTELINPKSAVSGATPVMKDSEHFFFDLPQFESMLKEWTRSGSLQSETANKMQEWFESGLQQWDISRDAPYFGFEIPGEKDKFFYVWLDAPIGYMGSFKNLCNKRDDLDFDEYWNKDSKTELYHFIGKDIVYFHSLFWPAMLEGSGFRKPNNVFVHGYVTVNGAKMSKSKGTFVKASTYLDHLDPECLRYYYAAKLNSRIDDLDLNLEDFTQRVNADVVNKIVNLASRNAGFIAKRFEGKLSDNFAEPELYNEFVAAADRIAELFEAREFGRAIREITALADKANQYVDEKAPWVVAKEEGKDQELQEICSVGINLFRVLMTYLKPVMPALAARTEAFLNQELTWEGIAQPLTGHEITKFKALFNRIDPKNIEAMIEASKEDAAAEMAAKEKAEAAKTETELSKDPIADEIEFDTFAQVDLRIARIISCEEVPKANKLLKFQLDIGGETRQVFSGIKSAYKPEELEGKLTVMVANLKPRKMKFGMSEGMILAAGPGGSDLWILEPHEGAQPGMRVM”, the protein production was “failed”.
With “MANIEIRQETPTAFYIKVHDTDNVAIIVNDNGLKAGTRFPDGLELIEHIPQGHKVALLDIPANGEIIRYGEVIGYAVRAIPRGSWIDESMVVLPEA” the protein production was “not failed”.
For “MANIKIRQETPTAFYIKVHDTDNVAIIVNDNGLKAGTRFPDGLELIEHIPQGHKVALLDIPANGEIIRYGEVIGYAVRAIPRGSWIDESMVVLPEA”, the protein production was “not failed”.
With “MANKEKLPWDLEEEILSRVPPTSLDRFKTVCKRWNALFNDKTFINNHKMTFQFVLSTRSKIYSVSVNPKVEVRELTLNNPGLKAQRHKNLFATSGLLLCDVGNGAVVWNPWLKQSRCIKLEVNEPSLDFLGIGYDNNKRVEEIVYKTLSVYMKDLGSQYTWKIHDFASDTWIDQEIEKTKYSRRITEGSVTIRLTNLSVVSLNGKFFKFCDLPSGKNRRRDALALRVFREDRFSLLRQCHVTKKIKIWVTKNKIDNRYGGDVKWMSFMEVSIPTMPDLEHPKFNSQPSYFIDDKRLVICSCDETGRAWIYVVGGNKLVSKTQLDSVVDPWPLHCTYFPSLVLVPGGQREEAELQEAKNLHVTTELYVPGKTKSSIKLHYG” the protein production was “failed”.
For “MANKENTSDEGLRVSYDVKTYHEQKYIDYTLRLREILKTLPSFAKDYFRAIEPTTSANTRISYAYDIRVFFRFLMENNPVYKNYTIDQFTLADIENLEPVDIEEYQEYLKVYKNDEKQVTNTEKGLARKMSALRSFYGYYFKRQAISKNPTLLVDMPKLHEKAIIRLDADEVVRLLDYVDHGGDHLTGQKKAYFEKTRNRDLAILTLLLGTGIRVSECVGLDINDVDFENNGIKVMRKGGNEMIVYFGEEVENALKTYMYTTRRTTLPLPGHENALFLSTQRKRMGVQAIENMVKKYAREVTPNKKITPHKLRSTYGTSLYKETGDIYLVADVLGHKDVNTTKKHYAAIDEDRRRQAANIVKLREV”, the protein production was “failed”.
In the case of “MANNTTGFTRIIKAAGYSWKGLRAAWINEAAFRQEGVAVLLAVVIACWLDVDAITRVLLISSVMLVMIVEILNSAIEAVVDRIGSEYHELSGRAKDMGSAAVLIAIIVAVITWCILLWSHFG”, the protein production is reported as “failed”.
With “MANRLRTGIDVLDRKLDGGIPAGSIVVLSAQPASQAELFLYELTATRGTLWLSLDRTAESVIASIEQTPANTGDPTVRHISGEAPLDNAGKLVSALPETSNLIVDPLDVLEAQEPHSRFRAFMNDLQNHIVNTGSLAIVHCLDGRDVPPLRDTTEHFADVVFQLNTTTNGDEVENRLAIPKFRGGRAPTDIIKLNLVEEVSIDTSRDIALEHHHHHH” the protein production was “failed”.
With “MANSASPEQNQNHCSAINNSIPLMQGNLPTLTLSGKIRVTVTFFLFLLSATFNASFLLKLQKWTQKKEKGKKLSRMKLLLKHLTLANLLETLIVMPLDGMWNITVQWYAGELLCKVLSYLKLFSMYAPAFMMVVISLDRSLAITRPLALKSNSKVGQSMVGLAWILSSVFAGPQLYIFRMIHLADSSGQTKVFSQCVTHCSFSQWWHQAFYNFFTFSCLFIIPLFIMLICNAKIIFTLTRVLHQDPHELQLNQSKNNIPRARLKTLKMTVAFATSFTVCWTPYYVLGIWYWFDPEMLNRLSDPVNHFFFLFAFLNPCFDPLIYGYFSL” the protein production was “not failed”.
In the case of “MANVLVINFPGEGHINPTLAIISELIRRGETVVSYCIEDYRKKIEATGAEFREFENFLSQINIMERVNEGGSPLTMLSHMIEASERIVTQIVEETKGEQYDYLLYDNHFPVGRIIANVLQLPSISSCTTFAFNQYITFNDEQESRQVDETNPLYQSCLAGMEKWNRQYGMKCNSMYDIMNHPGDITIVYTSKEYQPRSDVFDESYKFVGPSIATRKEVGSFPMEDLKGEKLIFISMGTVFNEQPELYEKCFEAFKGVEATVILAVGKKINISQFENIPNNFKLYNYVPQLEVLQHADVFVTHGGMNSSSEALYYGVPLVVIPVTGDQPLVAKRVNEVGAGIRLNRKELTSELLRETVKEVMYDVTFKENSRKVGESLRNAGGYKRAVDEIFKMKMNSYLKLK”, the protein production is reported as “failed”.
In the case of “MANVSMEAKGLLILGFPIAATMIAQTLMSLTDLMLVSRLGEKQVAGVSLGIAVYSFGMLFGLGVITAVTPMIAKAYGRKDFNAVSNYTRQGLWVAALVAMPGVIALILTRSILLFLNVEAETANIASDYCVGALMGLPAFLIYVNLRCFLSAIGRPKTTTWIMFLAVPVNYIIGHVLIFGVMDAEGLGITGAGLASSVTRLAILSTVIATLKYGADFKCFSLFENVMNVKPVVVKKIVLLGLPVGVRILLAEGMLPIIALLISTLGTIDLVAHMVAVRLSGVSAVIALGFSSAASTRVAWQVAANNQNGVRVTGYVASALAFGVSALLAMLLIFFPTELVMLLFDIDDAEVLALTSHLLKVVAAYQILNAIQTAVVGSLLGVSDTKIPTCLVLIGNWLVGLASAYGLVVLFEATVTAVWGGLVLGQVFVVVTCLCRFHMKTKALHE”, the protein production is reported as “failed”.
For “MAPARLRADTGSGEPIIHSTLLYILLAATISGVGSIFGAALLSLTVASRVVERMVSFSVGVLLATALLHSLPEAFESGADTRALFGTLLAGLLGFFLLEKISLLRHSHHHEGDGHHHHHGHDREEAGRSGLTILVGDTFHNFADGIVIAAAFLANPHIGIVTALAIAAHEIPQEVGDFIVLLNAGFSKARAFAFNLLSSLAAIIGGLVGYFLLDQLTGWIPYVLVIASSSFLYIAVSDLMPQMQRKPRLKESAVQVVLVAAGIAAIVFITNGVHEQHGHRHSRTAAGVTSN”, the protein production was “failed”.
With “MAPEPLSAAGQNLIDTATSVINGIPVSDFYSVASAAISDDGRVFSGVNVYHFNGGPCAELVVLGVAAAAGATKLTHIVAIANEGRGILSPCGRCRQVLADLHPGIKAIVIGKEGPKMVAVEELLPSIYAWDKDYDRI” the protein production was “not failed”.
In the case of “MAPIFLEYKVVHDNITYYIIYVFIYNLSLKLVTMYTINPSSHTILNYNVSLEPEQIFSNITGVSTYYSLDGKKILAYEDNNGSIIVAYNGLILKKASNNSVRYLIAANYPGIDNSKFPSLYKLAEISIFDSNIRVLVLGVLLTILSSFILKVMVGRYDKVR”, the protein production is reported as “failed”.
For “MAPKPVAVDAGHYRGTWLEIGRMPMLLTDGCVAGYSTYRQGKSADEVLVEDGCREGTPQGKLKTINGVGKIEDFASTKAKMRVRYPLLITFNYWVLYKSPDKSWFISANPSTEDVWVYARSVPSKAKLNRMMMKVRELGYDVKKLEFPLEHHHHHH”, the protein production was “not failed”.
With “MAPLQTPLCSEIGIDHPVVQAPVGSVSTPSLAAAVADAGGLGMLAMSWREADAIRDAYTDAANATDGVVGVNVVLDESTGVLSPSACLDACLDAGAPVVSFSFGDAGPYIDRVHEVGGTVMVTVASAAEARAAVDAGADVVVAQGREAGGHVQSDVTTMSLLPRVADGVPVPVVAAGGLGDGRGLAAALTLDADGGWFGTRFVATEESGAHEAYRQQIVDAPETATRFTDLFDRGWPDQPHRVLETDEVRQQAGADSGGESDGSDPEQIAQMPDGEPISRFADMPPLAGMTGDVEALPHYAGQSTGLAQDVRPAGEVVARLVSDARAALADASAAAE” the protein production was “failed”.
With “MAPPTPHLAVRGSDGTLLLHGPPNCQESSAFQRDDRQGRYMTFSNDGTLFAWCNGSQVTVLKVPSGDLVKSFDLPKTTALEFSPLNKVLATWQQYTKTQDNPQGEANLQLWDLQTGACMKAFYQKKMTGWCPSWADDESISVRNVNNELHFFENNNFETIANKLHLQKVSEFALSPGSQPSKVAVYVPGSKGAPSFVRLYQYPNFGGPTCALANKSFFKADKVNMLWNKKATAVLVTASTEVDKTGASYYGEQTLHYVATNGESAVVQLPKNGPIYDVSWSPNSTEFCVVYGFMPAKATVFNNKCESVFDFGTGPRNAAFYSPQGHILVLAGFGNLRGQMEVWDVKKYKQVSKPQAEDTTHFSWCPDGEHIVTATCSPRLRASNGYKIWHYTGTVLYKHETPSGKELWEVLWQPFPAGVFPERAVKYQALPSELGSTEAKPAQAYRPPALRNKPQTASSKLHEEEPPQNMKPGAAGEKQPSKAALKNQKRREAKKAAKQENKPDEAPPPAADPAPVSHVTSSCGDPETDKKIKNLKKKLKAIDELKEQQAAGKVMQKNQLEKMQKEAQLLKELEDLELGL” the protein production was “not failed”.
For “MAPQPVIRSKQAEKTINGNQTQVVCTEFSNYIFIVLTQYGKIGTLVSITPDTRSGDISVPMYTSKVLLGKDEPLTHVYAKNVATFVSQESGNRPILLGLSLKDNSAETMKTVKDMIKSCQVW”, the protein production was “failed”.
In the case of “MAPRQLAAADLAVGQVVAQREIRLDAQAFAQFAALTGDAHPIHYDAGYVQRQGLRAPIAHGLLLVAISALGATPLSAQLHDAMVAMVGVEAVFMRPVYVDETVQCVYRVAQIEHVAKGRSKTTIAVSIHTTDAPPDAARQAHCVVHLTFLLKTHLQGLEHHHHHH”, the protein production is reported as “failed”.
In the case of “MAQFYSAKRRTTTRQIITVSVNDLDSFGQGVARHNGKTLFIPGLLPQENAEVTVTEDKKQYARAKVVRRLSDSPERETPRCPHFGVCGGCQQQHASVDLQQRSKSAALARLMKHEVSEVIADVPWGYRRRARLSLNYLPKTQQLQMGFRKAGSSDIVDVKQCPILVPQLEALLPKVRACLGSLQAMRHLGHVELVQATSGTLMILRHTAPLSSADREKLECFSHSEGLDLYLAPDSEILETVSGEMPWYDSNGLRLTFSPRDFIQVNAGVNQKMVARALEWLDVEPEDRVLDLFCGMGNFTLPLATQAASVVGVEGVPALVEKGQQNARLNGLQNVTFYHENLEEDVTKQPWAKNGFDKVLLDPARAGAAGVMQQIIKLEPIRIVYVSCNPATLARDSEALLKAGYTIARLAMLDMFPHTGHLESMVLFSRVK”, the protein production is reported as “not failed”.
For “MAQHTVYFPDAFLTQMREAMPSTLSFDDFLAACQRPLRRSIRVNTLKISVADFLQLTAPYGWTLTPIPWCEEGFWIERDNEDALPLGSTAEHLSGLFYIQEASSMLPVAALFADGNAPQRVMDVAAAPGSKTTQISARMNNEGAILANEFSASRVKVLHANISRCGISNVALTHFDGRVFGAAVPEMFDAILLDAPCSGEGVVRKDPDALKNWSPESNQEIAATQRELIDSAFHALRPGGTLVYSTCTLNQEENEAVCLWLKETYPDAVEFLPLGDLFPGANKALTEEGFLHVFPQIYDCEGFFVARLRKTQAIPALPAPKYKVGNFPFSPVKDREAGQIRQAATGVGLNWDENLRLWQRDKELWLFPVGIEALIGKVRFSRLGIKLAETHNKGYRWQHEAVIALASPDNMNAFELTPQEAEEWYRGRDVYPQAAPVADDVLVTFQHQPIGLAKRIGSRLKNSYPRELVRDGKLFTGNA”, the protein production was “not failed”.

— a protein production outcome set (Wang et al. 2014)
